Substitutions are numbered along the chain they refer to. Bridge positions count the residues as written; N and C are the ends. Square brackets hold non-standard residues; d marks the D form. Ends that are not written are not given here. S5 = C=CCCC[C@](C)(N)C(=O)O
What was measured:
[1] = target: T1, Bfl-1 (Homo sapiens, UniProt Q16548); assay: Bfl-1:NOXA conjugation assay (disulfide bond formation); assay type: binding; settings: compared with BCL-XL and MCL-1; non-reducing SDS-PAGE
T1 sequence (Q16548 1-175): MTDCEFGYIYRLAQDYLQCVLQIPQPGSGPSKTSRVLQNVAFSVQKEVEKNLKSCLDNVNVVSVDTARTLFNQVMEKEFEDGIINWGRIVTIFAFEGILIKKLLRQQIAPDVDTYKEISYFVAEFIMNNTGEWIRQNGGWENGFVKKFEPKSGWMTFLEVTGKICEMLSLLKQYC
Protocol: Next, the impact of the C25 in NOXA was investigated. Bfl-1 and NOXA have cysteine residues within 3.5 Å of the Bfl-1 BH3 binding pocket according to modelling. […] To examine the impact of C25 in NOXA on target interaction, we examined the binding of WT NOXA SAHB and NOXA C25S SAHB to Bfl-1 and to a variety of Bfl-1 cysteine mutants. In vitro conjugation assays were performed in order to verify the formation of the disulfide bond. Global reduction of the protein and the NOXA peptides, followed by the introduction of an oxidant such as GSSG led to production of a disulfide bond, shown as a 3 kDa shift on non-reducing SDS-PAGE (FIG. 4A). […] (FIG. 4A).
Bfl-1:NOXA conjugation assay: The conjugation assay was developed to test for disulfide bond formation in a non-reducing environment. 3:1 FITC-stapled peptide:protein molar ratio was combined in the presence of DTT, then diluted and incubated with 1.2 molar excess GSSG. Samples were then run on non-reducing SDS-PAGE, scanned for fluorescence, then stained with Coomassie.

[2] = target: T1, Bfl-1; assay: Competitive binding assay after pre-forming the Bfl-1:NOXA disulfide bond; settings: Bfl-1:NOXA disulfide bond pre-formed
Protocol: The functional impact of the Bfl-1:NOXA disulfide bond formation was evaluated using competitive binding assays and liposomal release assays.

[3] = target: T2, MCL-1ΔNΔC (Homo sapiens, UniProt Q07820); assay: In vitro covalent conjugation assay; assay type: binding; settings: oxidizing conditions
T2 construct: MCL-1ΔNΔC (aa 170-327) and BCL-XLΔC (aa 1-212) constructs were cloned into pGEX-4T-1; GST (N, cleaved yes); made in house; host or cells: Escherichia coli BL21(DE3)
Protocol: (§1) After this incubation in a reducing environment, the mixture was diluted 5-fold into 50 mM Tris pH 8.0, 100 mM NaCl, 12 mM GSSG and incubated in the dark for an additional 30 min at RT. […] The gel was rinsed with water, subjected to FITC scan (Typhoon FLA 9500, GE Healthcare) and then Coomassie staining.
(§2) Processing for gel electrophoresis and Coomassie staining was performed as above.

[4] = target: T3, BCL-XLΔC (Homo sapiens, UniProt Q07817); assay: In vitro covalent conjugation assay; assay type: binding; settings: oxidizing conditions
T3 construct: MCL-1ΔNΔC (aa 170-327) and BCL-XLΔC (aa 1-212) constructs were cloned into pGEX-4T-1; GST (N, cleaved yes); made in house; host or cells: Escherichia coli BL21(DE3)
Protocol: as §1, §2

[5] = target: T4, BFL-1ΔC (Homo sapiens, UniProt Q16548, C19S/C4S); assay: In vitro covalent conjugation assay; assay type: binding; settings: only C55 present; oxidizing conditions
T4 construct: cDNA encoding BFL-1ΔC (aa 1-153) was cloned into the pET19b expression vector; made in house; host or cells: Escherichia coli BL21(DE3) LOBSTR
T4 sequence (Q16548 1-153 C4S/C19S): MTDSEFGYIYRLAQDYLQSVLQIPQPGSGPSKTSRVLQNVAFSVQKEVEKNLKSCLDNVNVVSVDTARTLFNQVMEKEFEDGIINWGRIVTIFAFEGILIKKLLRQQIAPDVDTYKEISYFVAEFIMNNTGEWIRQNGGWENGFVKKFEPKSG
Protocol: (§3) In Vitro Covalent Conjugation Assay: BFL-1ΔC constructs (40 μM) were combined with NOXA SAHBA or NOXA SAHBA C25S (120 μM) and 10 mM DTT in 50 mM Tris pH 8.0, 100 mM NaCl (final volume, 5 μL), and then incubated in the dark for 1 h at room temperature (RT). After this incubation in a reducing environment, the mixture was diluted 5-fold into 50 mM Tris pH 8.0, 100 mM NaCl, 12 mM GSSG and incubated in the dark for an additional 30 min at RT. The samples were then boiled in 4× loading buffer lacking DTT and electrophoresed on 12% Bis-Tris gel. The gel was rinsed with water, subjected to FITC scan (Typhoon FLA 9500, GE Healthcare) and then Coomassie staining.
(§4) For warhead-bearing SAHBs, His-BFL-1ΔC C4S/C19S protein was pretreated with 10 mM DTT in 50 mM Tris pH 8.0, 100 mM NaCl for 30 min at RT (final volume, 9.5 μL), and then combined with a 10:1 molar ratio of NOXA SAHBA or BIM SAHBA peptides bearing warheads 1-8 (final volume, 10 μL) for an additional 2 h incubation at RT. Processing for gel electrophoresis and Coomassie staining was performed as above.

[6] = target: T5, BFL-1ΔC (Homo sapiens, UniProt Q16548); assay: In vitro covalent conjugation assay; assay type: binding; settings: DTT (10 mM) reduction then GSSG oxidation (12 mM); Coomassie, FITC scan
T5 construct: cDNA encoding BFL-1ΔC (aa 1-153) was cloned into the pET19b expression vector; made in house; host or cells: Escherichia coli BL21(DE3) LOBSTR
T5 sequence (Q16548 1-153): T4 sequence (Q16548 1-153 C4S/C19S) with S4C, S19C
Protocol: as §3, §4

[7] = target: T1, Bfl-1; assay: Liposomal release assay (Bfl-1 inhibition of BAX activation); assay type: biochemical
Protocol: The functional impact of the Bfl-1:NOXA disulfide bond formation was evaluated using competitive binding assays and liposomal release assays. […] Bfl-1 alone in the liposomal release assay inhibits activation of BAX and subsequent pore formation in the liposomes. […] (FIG. 5A and FIG. 5B).
Liposomal release assay: Large unilamellar vesicles (LUVs) with lipid composition resembling the mitochondrial outer membrane were generated, encapsulating the fluorescent dye ANTS (8-aminonaphthalene-1,3,6-trisulfonic acid, disodium salt) and the quencher DPX (p-xylene-bis-pyridinium bromide). For measurement of Bfl-1-induced inhibition of BAX, Bfl-1, BAX, tBid activator and liposomes were combined. To test effects of covalently bound Bfl-1:NOXA on BAX activation, Bfl-1 and NOXA SAHB were preincubated as described, then used at the designated concentrations. ANTS release and dequenching due to DPX dissociation (F) was measured over a period of 120 min with an M1000 Infinite plate reader (Tecan) with excitation and emission wavelengths of 355 nm and 520 nm, respectively. Plates were read following liposome lysis with 1% Triton X-100 to determine maximal release (F100). Percent ANTS/DPX release was calculated as [(F−F0)/(F100−F0)]×100.

T3 sequence (Q07817 1-212, stated change not applied): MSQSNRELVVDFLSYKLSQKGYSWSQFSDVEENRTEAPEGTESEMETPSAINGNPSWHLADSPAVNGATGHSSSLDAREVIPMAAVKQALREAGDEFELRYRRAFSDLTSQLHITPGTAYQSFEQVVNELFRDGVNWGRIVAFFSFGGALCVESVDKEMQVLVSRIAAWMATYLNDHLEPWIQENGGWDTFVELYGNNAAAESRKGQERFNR
T2 sequence (Q07820 170-327, stated change not applied): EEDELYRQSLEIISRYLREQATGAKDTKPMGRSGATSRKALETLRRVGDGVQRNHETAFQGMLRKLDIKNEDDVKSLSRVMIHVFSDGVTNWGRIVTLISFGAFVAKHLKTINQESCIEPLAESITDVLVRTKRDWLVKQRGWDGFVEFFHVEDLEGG

Substance: NOXA SAHBA: stapled NOXA BH3 (aa 19-43) peptide, i, i+4 all-hydrocarbon staple substituting R31 and K35; SEQ ID NO:124 (AELEVECATQLR[S5]FGD[S5]LNFRQKLL; staple 13-17; not fully specified)
- covalent (disulfide) bond formation [1]: only Bfl-1 forms a covalent bond
- availability of the Bfl-1 binding pocket to another FITC BH3 domain [2]: significantly decreased the availability of the Bfl-1 binding pocket
- molecular weight shift or FITC labeling [3]: no molecular weight shift or FITC labeling
- molecular weight shift or FITC labeling [4]: no molecular weight shift or FITC labeling
- disulfide adduct with BFL-1ΔC C4S/C19S [5]: molecular weight shift (Coomassie stain) and FITC-labeling
- molecular weight shift of wild-type BFL-1ΔC (disulfide bond) [6]: shift in the molecular weight
- inhibition of anti-apoptotic effects of Bfl-1 on BAX ([7]; Bfl-1:NOXA disulfide bond formed prior to the assay): almost completely erases the effects of Bfl-1
- inhibition of anti-apoptotic effects of Bfl-1 on BAX ([7]; NOXA added concurrently with Bfl-1): somewhat inhibited
